{
  "source": "patent US20260159561A1",
  "about": "(MyNeuroCure Oy, priority 2017, published 2026)",
  "key": {"[1]": {"test_system": "rat 6-OHDA model of PD", "assay": "Neurorestoration study in 6-OHDA model of PD, amphetamine-induced rotations", "type": "in vivo", "conditions": "intrastriatal injection 2 weeks after 6-OHDA lesioning; 2, 4, 6 and 8 weeks post-lesion", "protocol": "In neurorestoration model of PD, rats were lesioned with 6-OHDA as described before (Voutilainen et al., 2009; Voutilainen et al., 2011, Penttinen et al., 2016). Briefly, rats received under isoflurane anesthesia unilateral stereotaxic injections of 3×2 μg 6-OHDA (in 10 degree angle) into the left striatum (coordinates relative to bregma and dura A/P+1.6; L/M −2.8; D/V −6, A/P 0.0: L/M −4.1; D/V −5.5 and A/P −1.2; L/M: −4.5; D/V −5.5). Two weeks later, rats were divided to groups based on their amphetamine-induced rotation results (size of the lesion). […] In the reference experiment after division of rats into groups, osmotic minipumps were inserted subcutaneously and cannula was placed into lesioned striatum. The minipump delivered MANF4 (i.e. MANF peptide CKGC, see WO2013034805), GDNF or vehicle solution into striatum for two weeks after which the minipump and cannula were removed. […] The number of amphetamine-induced (2.5 mg/kg, i.p.) full (360°) ipsi- and contralateral turns were recorded for 120 mins after a 30 min habituation period. The results are expressed as net ipsilateral turns to the lesion side Exclusion criterion was Mean (net rotations)±2×STDEV."}, "[2]": {"test_system": "dopaminergic neurons", "assay": "Survival of TH-positive dopaminergic neurons in midbrain cultures", "type": "cell-based", "conditions": "added to culture medium, 5 days, E13/E13.5 NMRI mouse midbrain floors", "protocol": "To study the dopamine neurons (Yu et al., 2008; Yu and Arumae, 2008), the midbrain floors were dissected from the ventral mesencephali of 13.5-d-old NMRI strain mouse embryos. Tissues were incubated with 0.5% trypsin (ICN Biomedical), then mechanically dissociated using a large fire-polished Pasteur pipette. […] Same amount of the neurons were plated to each well at the beginning of the experiments. The cultures without added neurotrophic factors served as the negative control. As the midbrain cultures contain several neuronal types, the cultures were fixed and immunostained with the antibodies to tyrosine hydroxylase (TH) (Millipore), a specific marker for the dopaminergic neurons. Images of each well were scanned by CellInsight™ and immunopositive neurons were counted by CellProfiler and CellProfiler analyst software. Data are expressed as a percentage of GDNF-maintained TH-positive neurons. All experiments were repeated at least three times on the independent cultures. The results were expressed as the mean the SEM and were tested for the significance by either one-way ANOVA and Tukey's post hoc test or by two-tailed Student's t-test. The null hypothesis was rejected at P<0.05."}, "[3]": {"test_system": "ER stressed SCG neurons", "assay": "Survival of tunicamycin ER-stressed SCG neurons microinjected with recombinant protein", "type": "cell-based, mouse", "conditions": "recombinant protein microinjected into the cytoplasm; tunicamycin 2 μM; counted after 3 days", "protocol": "Non-neuronal cells were removed by extensive preplating. Almost pure neurons were cultured in polyornithine/laminin (Sigma)-coated 35-mm plastic dishes in the small-size standard microislands in the Neurobasal medium and B27 supplement (Invitrogen/Gibco) in the presence of 30 ng/ml mouse nerve growth factor (NGF) (Promega) for 5-6 days. NGF was deprived by extensive washing and addition of the function-blocking anti-NGF antibodies (Roche). The neurons were pressure-microinjected with special neuronal microinjection equipment (Hellman et al., 2011; Hamner et al., 2001; Lindholm et al., 2002; Sun et al., 2001; Yu et al., 2003)(Sun et al., 2001; Sun et al., 2003). For the survival assay, all neurons on the microislands were counted in the beginning (initial number) and the end (three days) of the experiment and expressed as % of initial.\nMicroinjection of the sympathetic neurons was performed as described earlier (Yu, L. Y., Jokitalo, E., Sun, Y. F., Mehlen, P., Lindholm, D., Saarma, M., and Arumäe, U. (2003) J. Cell Biol. 163, 987-997). […] Next day tunicamycin (2 μM) was added, and after 3 days the living fluorescent neurons were counted. Living fluorescent (EGFP-expressing or Dextran Texas Red-containing) neurons were “blindly” counted three days later and expressed as percent of initial living fluorescent neurons counted 2-3 hours after microinjection. […]"}},
  "data": [
    {"molecule": "C-CDNF: Human C-CDNF, SEQ ID NO: 4: C-terminal domain of mature CDNF, amino acid 101 to 161; recombinant, Histidine tag at C-terminus (protein, listed as Homo sapiens) KYEKTLDLASVDLRKMRVAELKQILHSWGEECRACAEKTDYVNLIQELAPKYAATHPKTEL", "values": [
      {"measurement": "cumulative amphetamine-induced rotations", "setting": "[1]", "result": "significantly reduces the cumulative amount of amphetamine-induced rotations"},
      {"measurement": "TH-positive neurons, percentage of GDNF-maintained neurons", "setting": "[2]", "result": "protects dopaminergic neurons in vitro"},
      {"measurement": "living fluorescent neurons, percentage of initial neurons", "setting": "[3]", "result": "rescue ER stressed SCG neurons"}
    ]}
  ]
}
